The record followed here is US20240425837A1 (Novo Nordisk, published 2024).

The experiment deals with human plasma-derived coagulation Factor X (FX) (human) (UniProt P00742). Kind of experiment: cell-based or functional assay.
Chain of human plasma-derived coagulation Factor X (FX) (human) (P00742 41-179, chain 1 of 2): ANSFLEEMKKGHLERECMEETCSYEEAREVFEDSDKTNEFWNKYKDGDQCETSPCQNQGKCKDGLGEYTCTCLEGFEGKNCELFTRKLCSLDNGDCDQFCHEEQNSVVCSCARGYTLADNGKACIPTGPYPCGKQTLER
Chain of human plasma-derived coagulation Factor X (FX) (human) (P00742 183-488, chain 2 of 2): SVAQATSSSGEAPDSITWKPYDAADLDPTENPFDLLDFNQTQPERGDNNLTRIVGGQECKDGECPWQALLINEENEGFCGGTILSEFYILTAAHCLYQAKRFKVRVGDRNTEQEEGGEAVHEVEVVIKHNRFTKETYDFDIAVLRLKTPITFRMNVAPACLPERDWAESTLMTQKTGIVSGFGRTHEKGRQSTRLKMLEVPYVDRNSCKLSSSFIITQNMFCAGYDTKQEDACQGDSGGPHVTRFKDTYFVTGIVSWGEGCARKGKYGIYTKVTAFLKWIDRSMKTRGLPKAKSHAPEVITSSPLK

As for “Emicizumab sequence identical analogue (SIA) (bispecific antibody)”, the KM of FX activation by 0.1 nM FIXa with phospholipid vesicles, antibody at 300 nM was determined as 53.5 nM.
